Measured values from article PMC5153404, “Analysis of the Interaction between Globular Head Modules of Human C1q and Its Candidate Receptor gC1qR” (Frontiers in Immunology, 2016).

Target: T1, Human C1q (human, UniProt P02745 23-245; P02746 28-253; P02747 29-245)
T1 construct: C1q A chain, human, from plasma; C1q B chain, human, from plasma; C1q C chain, human, from plasma; 18 polypeptides (6A, 6B, 6C), 460 kDa, as the introduction says; also called full-length C1q; source: purified from human plasma (IgG-Sepharose, HiTrap Protein G); copies: 6 + 6 + 6
Test: ELISA; human C1q coated on wells (5, 2.5, 1.25, 0.625 μg/well); 2.5 μg gC1qR in 50 mM Tris-HCl pH 8.0, 100 mM NaCl, 5 mM CaCl2; 1 h at 37°C, then 1 h at 4°C; detected with anti-gC1qR polyclonal antibody and Protein A-HRP
Settings: both partners purified

T1 sequence (P02745 23-245, chain 1 of 3): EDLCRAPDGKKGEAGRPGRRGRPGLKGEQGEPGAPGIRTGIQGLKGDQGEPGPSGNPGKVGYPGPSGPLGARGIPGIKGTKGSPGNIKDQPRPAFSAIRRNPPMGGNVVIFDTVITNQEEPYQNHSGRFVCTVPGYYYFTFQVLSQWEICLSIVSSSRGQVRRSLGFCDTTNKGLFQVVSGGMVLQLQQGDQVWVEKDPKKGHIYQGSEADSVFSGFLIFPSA
T1 sequence (P02746 28-253, chain 2 of 3): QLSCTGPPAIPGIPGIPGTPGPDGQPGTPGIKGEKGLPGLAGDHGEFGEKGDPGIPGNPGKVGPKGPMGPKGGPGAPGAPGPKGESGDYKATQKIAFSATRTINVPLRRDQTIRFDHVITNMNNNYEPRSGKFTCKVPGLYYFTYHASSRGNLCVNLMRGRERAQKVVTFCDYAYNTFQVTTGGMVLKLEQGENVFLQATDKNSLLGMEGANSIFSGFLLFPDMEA
T1 sequence (P02747 29-245, chain 3 of 3): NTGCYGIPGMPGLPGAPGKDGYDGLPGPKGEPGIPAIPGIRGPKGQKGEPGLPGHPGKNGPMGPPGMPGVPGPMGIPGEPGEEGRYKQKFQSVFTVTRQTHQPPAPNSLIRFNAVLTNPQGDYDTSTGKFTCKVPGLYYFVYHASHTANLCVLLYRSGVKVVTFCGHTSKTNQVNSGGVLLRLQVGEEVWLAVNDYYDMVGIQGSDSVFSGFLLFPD

B1: Recombinant mature human gC1qR (residues 74-282) (receptor, UniProt Q07021 74-282, looked up)
chain: LHTDGDKAFVDFLSDEIKEERKIQKHKTLPKMSGGWELELNGTEAKLVRKVAGEKITVTFNINNSIPPTFDGEEEPSQGQKVEEQEPELTSTPNFVVEVIKNDDGKKALVLDCHYPEDEVGQEDEAESDIFSIREVSFQSTGESEWKDTNYTLNTDSLDWALYDHLMDFLADRGVDNTFADELVELSTALEHQEYITFLEDLKSFVKSQ
binding result: binds
